Test results published in US20220056119A1 (Regeneron, published 2022).

B1: H4H10433P2 (antibody, human IgG4, V domains shown)
VH: EVQLVESGGGLVQAGRSLRLSCEASGFTFDDYGMHWVRQGPGKGLEWVSGISWNSGNIDYADSVKGRFTISRDNAKTSLYLQMNSLKTDDTALYFCAKDAVGFNWNYFLFDYWGQGTLVTVSS
VL: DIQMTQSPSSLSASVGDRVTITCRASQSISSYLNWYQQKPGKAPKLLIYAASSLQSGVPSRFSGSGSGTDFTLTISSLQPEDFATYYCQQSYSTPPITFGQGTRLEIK
B2: H4H10440P2 (antibody, human IgG4, V domains shown)
VH: EVQLVESGGGVVQPGGSLRLSCAASTFTFDDFAMHWVRQAPGKGLEWVSLITGDGGSTYYADPVKGRFTISRDNSKNSLYLQMNSLRTEDTALYYCVKDWWIAARPDYYYYGMDVWGQGTTVTVSS
VL: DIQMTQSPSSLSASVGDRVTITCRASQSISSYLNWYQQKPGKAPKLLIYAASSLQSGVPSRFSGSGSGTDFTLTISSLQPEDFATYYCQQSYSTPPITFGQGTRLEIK
B3: H4H10436P2 (antibody, human IgG4, V domains shown)
VH: QVQLVESGGGVVQPGRSLRLTCVASGFTVSSYGMHWVRQAPGKGLEWVAVMFYDESKKYYADSVKGRFTISRDNSKNTLYLQMNSLRVEDTAVYYCARDEQLDFEYWGQGTLVTVSS
VL: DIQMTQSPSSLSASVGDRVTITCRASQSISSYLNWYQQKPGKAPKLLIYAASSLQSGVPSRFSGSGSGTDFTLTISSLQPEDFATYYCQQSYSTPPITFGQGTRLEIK
B4: H4H10429P (antibody, human IgG4, V domains shown)
VH: QVQLVESGGGVVQPGRSLRLSCVASGFTVSSYGIHWVRQAPGKGLEWVSVIWYDGRNKDYADSVKGRFTISRDNSKNTVYLEMKGLRAEDTALYYCARDKTGDFDSWGQGTLVTVSS
VL: DIQMTQSPSSLSASVGDRVTITCRASQNINSFLSWYQQKPGKAPKFLIYDASSIQSGAPSRFSGSGSGTDFTLTISSLQPEDFATYYCQQSYSSPFTFGQGTKLEIK
B5: H4H10430P (antibody, human IgG4, V domains shown)
VH: EVQLVESGGGLVQPGRSLRLSCKASGFAFDDFAMHWVRQAPGKGLEWVSGIVWNSGDIGYADSVKGRFTISRDNAKNSLYLQLNSLRTEDTALYFCVKDMVRGLMGFNYYGMDVWGQGTTVTVSS
VL: EIVLTQSPATLSLSPGERATLSCRASQTISTYLVWYRQRPGQAPSLLIYDASNRATDIPARFSGSGSGTDFTLTISSLEPEDFAVYYCQQRSNWPITFGQGTRLEIK
notes: also called mAb1
B6: H4H10442P2 (antibody, human IgG4, V domains shown)
VH: QVQLQESGPGLVKPSETLSITCTVSGGSFSSHFWTWIRQPPGKGLEWIGYLHYSGGTSYNPSLKSRVIISVDTSKNQFSLKLNSVTAADTAVYYCARARSGITFGGLIVPGSFDIWGQGTMVTVSS
VL: not shown
B7: H4H10446P2 (antibody, human IgG4, V domains shown)
VH: QVQLQESGPGLVKPSETLSLTCTVSGGSFSSHFWSWIRQPPGKGLEWIGYILYTGGTSFNPSLKSRVSMSVGTSKNQFSLKLSSVTAADTAVYYCARARSGITFTGIIVPGSFDIWGQGTMVTVSS
VL: not shown
notes: also called mAb2
B8: H4H10423P (antibody, human IgG4, V domains shown)
VH: QVQLQQSGPGLLKPSQTLSLTCAISGDSVSSNSAAWSWIRQSPSRGLEWLGRTYYRANWFNDYALSVKSRITINPVTSTNHFSLQLHSVTPEDTAVYYCAREGALGYYFDSWGQGTLVTVSS
VL: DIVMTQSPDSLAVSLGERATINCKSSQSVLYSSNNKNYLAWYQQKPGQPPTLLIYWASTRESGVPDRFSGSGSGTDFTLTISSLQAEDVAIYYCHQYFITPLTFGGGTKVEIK

What follows are binders tested against T1, Activin A (human, UniProt P08476 311-426) (assay: cell-based or functional assay).
T1 sequence: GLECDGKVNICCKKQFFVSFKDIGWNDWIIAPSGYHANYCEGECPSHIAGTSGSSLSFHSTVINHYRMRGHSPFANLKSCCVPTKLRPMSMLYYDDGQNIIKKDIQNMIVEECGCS

Binder | IC50, inhibition of 100 pM Activin A in A204/CAGAx12-Luc luciferase bioassay [M]
B1 | 1.5e-10

Target: T2, Activin B (human, UniProt P09529 293-407)
T2 chain: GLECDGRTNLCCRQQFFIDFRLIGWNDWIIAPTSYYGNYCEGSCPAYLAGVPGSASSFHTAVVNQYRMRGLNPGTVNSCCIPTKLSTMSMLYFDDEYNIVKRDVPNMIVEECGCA
Experiment: cell-based or functional assay

Binder | IC50, inhibition of 50 pM Activin B in A204/CAGAx12-Luc luciferase bioassay [M]
B1 | 1e-07

What follows are binders tested against T3, Activin A (R&D Systems, #338-AC) (human, UniProt P08476 311-426) (assay: SPR blocking: 5 nM Activin A + 15 nM binder over hActRIIB-hFc (Control 4) surface).
T3 construct: Bought protein; also called inhibin-βA dimer; homodimer of two βA subunits
T3 sequence: T1 sequence
Protocol: (§1) The binding signal (RU) was measured at 150 seconds after the start of the injection, and this signal was subtracted by the measured RU value for a negative control reference surface to determine the specific binding signal.

Binder | % bound RU w/ no inhibitor [%]
B2 | 4
B3 | 2
B4 | 2
B5 | 3
B6 | 115
B7 | 115
B8 | 42

What follows are binders tested against T3, Activin A (R&D Systems, #338-AC) (assay: SPR blocking: 5 nM Activin A + 30 nM binder over hActRIIB-hFc (Control 4) surface).
Protocol: as §1

Binder | % bound RU w/ no inhibitor [%]
B2 | 4
B3 | 3
B4 | 2
B5 | 3
B6 | 122
B7 | 89
B8 | 41

Each binder was assayed against T3, Activin A (R&D Systems, #338-AC) (assay: SPR blocking: 5 nM Activin A + 60 nM binder over hActRIIB-hFc (Control 4) surface).
Protocol: as §1

Binder | % bound RU w/ no inhibitor [%]
B2 | 4
B3 | 4
B4 | 3
B5 | 3
B6 | 124
B7 | 129
B8 | 41

The binders below were run against T3, Activin A (R&D Systems, #338-AC) (assay: SPR blocking: 5 nM Activin A + 0.00 nM binder over hActRIIB-hFc (Control 4) surface).
Protocol: as §1

Binder | % bound RU w/ no inhibitor [%]
B2 | 100
B3 | 100
B4 | 100
B5 | 100
B6 | 100
B7 | 100
B8 | 100

These binders were tested against T3, Activin A (R&D Systems, #338-AC) (assay: SPR blocking: 5 nM Activin A + 0.94 nM binder over hActRIIB-hFc (Control 4) surface).
Protocol: as §1

Binder | % bound RU w/ no inhibitor [%]
B2 | 79
B3 | 80
B4 | 87
B5 | 80
B6 | 110
B7 | 107
B8 | 93

Each binder was assayed against T3, Activin A (R&D Systems, #338-AC) (assay: SPR blocking: 5 nM Activin A + 1.88 nM binder over hActRIIB-hFc (Control 4) surface).
Protocol: as §1

Binder | % bound RU w/ no inhibitor [%]
B2 | 58
B3 | 60
B4 | 67
B5 | 62
B6 | 106
B7 | 105
B8 | 78

The binders below were run against T3, Activin A (R&D Systems, #338-AC) (assay: SPR blocking: 5 nM Activin A + 3.75 nM binder over hActRIIB-hFc (Control 4) surface).

Binder | % bound RU w/ no inhibitor [%]
B2 | 19
B3 | 19
B4 | 19
B5 | 20
B6 | 88
B7 | 76
B8 | 47

What follows are binders tested against T3, Activin A (R&D Systems, #338-AC) (assay: SPR blocking: 5 nM Activin A + 7.50 nM binder over hActRIIB-hFc (Control 4) surface).
Protocol: as §1

Binder | % bound RU w/ no inhibitor [%]
B2 | 7
B3 | 3
B4 | 2
B5 | 4
B6 | 103
B7 | 95
B8 | 42
